Laboratory results: patent publication US20260209350A1 (Alector, published 2026)
Substitutions are numbered along the chain they refer to.

T1: human monomeric His tagged TREM2 protein (human, UniProt Q9NZC2 19-174)
T1 construct: also called hTREM2-HIS
T1 sequence: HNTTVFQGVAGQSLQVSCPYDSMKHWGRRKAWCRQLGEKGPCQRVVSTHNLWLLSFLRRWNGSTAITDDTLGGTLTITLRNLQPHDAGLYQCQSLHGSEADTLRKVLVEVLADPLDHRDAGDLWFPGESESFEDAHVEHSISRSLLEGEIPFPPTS

T2: mouse TREM2 on cells (mouse, UniProt Q99NH8 19-227)
T2 construct: whole, on cells; Used for the recombinant protein on BWZ/BW cells (with mouse DAP12) and for the native protein on mouse macrophages and dendritic cells; the cell type stands under assay; also called mTREM2; mTrem2
T2 sequence (looked up): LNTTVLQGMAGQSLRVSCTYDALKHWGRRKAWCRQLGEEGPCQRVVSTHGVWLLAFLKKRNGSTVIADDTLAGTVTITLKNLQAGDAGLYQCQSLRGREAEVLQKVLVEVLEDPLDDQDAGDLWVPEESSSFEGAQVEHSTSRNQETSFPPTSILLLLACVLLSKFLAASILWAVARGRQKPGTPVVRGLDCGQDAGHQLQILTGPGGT

T3: human TREM2 on primary human cells (human, UniProt Q9NZC2 19-230)
T3 construct: also called hTREM2; TREM2 on primary human dendritic cells (hDC) and human macrophages
T3 sequence: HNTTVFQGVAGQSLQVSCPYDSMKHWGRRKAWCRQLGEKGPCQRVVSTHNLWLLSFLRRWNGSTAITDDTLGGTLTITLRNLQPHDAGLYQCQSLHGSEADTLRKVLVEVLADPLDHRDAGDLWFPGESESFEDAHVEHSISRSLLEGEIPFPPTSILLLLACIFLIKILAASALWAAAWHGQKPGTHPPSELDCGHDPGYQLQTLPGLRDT

T4: mouse TREM2 Fc fusion protein (mouse, UniProt Q99NH8 19-171)
T4 construct: also called mTREM2-Fc; not shown: Fc part not specified
T4 sequence (looked up): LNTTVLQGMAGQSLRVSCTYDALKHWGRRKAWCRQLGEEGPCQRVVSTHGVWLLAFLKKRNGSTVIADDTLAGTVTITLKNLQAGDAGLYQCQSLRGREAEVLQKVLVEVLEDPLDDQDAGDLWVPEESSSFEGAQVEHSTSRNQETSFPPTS

T5: human TREM2 Fc fusion protein (human, UniProt Q9NZC2 19-174)
T5 construct: also called hTREM2-Fc; not shown: Fc part not specified
T5 sequence: T1 sequence

B1: Ab8 (antibody, human IgG1, V domains shown)
VH: QLQLQESGPGLVKPSETLSLTCTVSGGSISSSSYYWGWIRQPPGKGLEWIGSISYSGSTYYNPSLKSRVTISVDTSKNQFSLKLSSVTAADTAVYYCARGPYRLLLGMDVWGQGTTVTVSS
VL: DIQMTQSPSSLSASVGDRVTITCRASQSISSYLNWYQQKPGKAPKLLIYGASSLQSGVPSRFSGSGSGTDFTLTISSLQPEDFATYYCQQIDDTPITFGGGTKVEIK
notes: human IgG1
B2: Ab52 (antibody, human IgG1, V domains shown)
VH: QVQLVQSGAEVKKPGASVKVSCKASGYTFTSYYIHWVRQAPGQGLEWMGIINPSGGSTSYAQKFQGRVTMTRDTSTSTVYMELSSLRSEDTAVYYCAREADDSSGYPLGLDVWGQGTMVTVSS
VL: EIVMTQSPATLSVSPGERATLSCRASQSVSSNLAWYQQKPGQAPRLLIYGASTRATGIPARFSGSGSGTEFTLTISSLQSEDFAVYYCQQVNSLPPTFGGGTKVEIK
notes: human IgG1; also called antibody 52
B3: Ab9 (antibody, human IgG1, V domains shown)
VH: EVQLVQSGAEVKKPGESLKISCKGSGYSFTSYWIGWVRQMPGKGLEWMGIIYPGDSDTTYSPSFQGQVTISADKSISTAYLQWSSLKASDTAMYYCARLHISGEVNWFDPWGQGTLVTVSS
VL: EIVLTQSPATLSLSPGERATLSCRASQSVSSYLAWYQQKPGQAPRLLIYDASNRATGIPARFSGSGSGTDFTLTISSLEPEDFAVYYCQQFSYWPWTFGGGTKVEIK
notes: human IgG1
B4: Ab65 (antibody, human IgG1, V domains shown)
VH: EVQLVQSGAEVKKPGESLKISCKGSGYSFTSYWIGWVRQMPGKGLEWMGIIYPGDSDTRYSPSFQGQVTISADKSISTAYLQWSSLKASDTAMYYCARLGRKPSGSVAFDIWGQGTMVTVSS
VL: B3 VL with F91D, S92Y, Y93S, W96Y
notes: human IgG1
B5: Ab1 (antibody, human IgG1, V domains shown)
VH: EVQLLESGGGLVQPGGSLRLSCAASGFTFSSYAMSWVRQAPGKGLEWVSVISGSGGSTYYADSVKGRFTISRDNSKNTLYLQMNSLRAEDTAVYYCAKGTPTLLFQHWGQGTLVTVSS
VL: B2 VL with V91L, N92P, S93Y, L94W
notes: human IgG1
B6: Ab14 (antibody, human IgG1, V domains shown)
VH: QVQLQESGPGLVKPSQTLSLTCTVSGGSISSGGYYWSWIRQHPGKGLEWIGNIYYSGSTVYNPSLKSRVTISVDTSKNQFSLKLSSVTAADTAVYYCARGLYGYGVLDVWGQGTMVTVSS
VL: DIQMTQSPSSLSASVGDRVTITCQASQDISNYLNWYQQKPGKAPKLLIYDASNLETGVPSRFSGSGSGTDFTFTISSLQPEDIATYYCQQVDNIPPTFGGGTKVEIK
notes: human IgG1
B7: Ab22 (antibody, human IgG1, V domains shown)
VH: EVQLVQSGAEVKKPGESLKISCKGSGYSFTTYWIGWVRQMPGKGLEWMGIIYPGDSDTRYSPSFQGQVTISADKSISTAYLQWSSLKASDTAMYYCARAGHYDGGHLGMDVWGQGTTVTVSS
VL: EIVMTQSPGTLSLSPGERATLSCRASQSVSSSYLAWYQQKPGQAPRLLIYGASSRATGIPDRFSGSGSGTDFTLTISRLEPEDFAVYYCQQDDRSPYTFGGGTKVEIK
notes: human IgG1
B8: Ab45 (antibody, human IgG1, V domains shown)
VH: QVQLVQSGAEVKKPGASVKVSCKASGYTFTSYYMHWVRQAPGQGLEWMGIINPSGGSTSYAQKFQGRVTMTRDTSTSTVYMELSSLRSEDTAVYYCARGPGYTTALDYYYMDVWGKGTTVTVSS
VL: EIVMTQSPATLSVSPGERATLSCRASQSVSSNLAWYQQKPGQAPRLLIYGASTRATGIPARFSGSGSGTEFTLTISSLQSEDFAVYYCQQLDDWFTFGGGTKVEIK
notes: human IgG1
B9: Ab21 (antibody, human IgG1, V domains shown)
VH: B7 VH
VL: B7 VL with S54N, R94S, S95A
notes: human IgG1; also called antibody 21

molecular target: T1, human monomeric His tagged TREM2 protein; experiment: ForteBio or MSD-SET, monovalent

Kd	Binder
15 nM	B1
5.75 nM	B2

molecular target: T2, mouse TREM2 on cells; experiment: FACS, mTrem2 cells

MFI	Binder
523 MFI	B1
15600 MFI	B2

molecular target: T2, mouse TREM2 on cells; experiment: FACS, WT mouse macrophages
Experimental: (§1) Cells were harvested, plated at 10⁵/ml in a 96 well plate, washed, and incubated in 100 ul PBS containing 10-50 ug/ml Mab and Fc blocking reagent for 1 hour in ice. Cells were then washed twice and incubated in 100 ul PBS containing 5 ug/ml PE-conjugated secondary antibody for 30 minutes in ice. Cells were washed twice in cold PBS and acquired on a BD FACS Canto. Data analysis and calculation of MFI values was performed with FlowJo (TreeStar) software version 10.0.7.

MFI	Binder
171 MFI	B3
165 MFI	B4
82.3 MFI	B5
145 MFI	B6
110 MFI	B7
141 MFI	B8

molecular target: T3, human TREM2 on primary human cells; experiment: FACS, primary human dendritic cells

hDC % positive	Binder
65.8%	B3
76.9%	B4
64.9%	B5
75.8%	B6
76.9%	B7
78.8%	B8

molecular target: T1, human monomeric His tagged TREM2 protein; experiment: ForteBio or MSD-SET, monovalent; remark: another data set of the same source
Experimental: (§2) The binding affinity of each anti-TREM2 antibody was determined by measuring their KD by ForteBio or MSD-SET. […] Briefly, ForteBio affinity measurements were performed by loading IgGs on-line onto AHQ sensors. Sensors were equilibrated off-line in assay buffer for 30 min and then monitored on-line for 60 seconds for baseline establishment. Sensors with loaded IgGs were exposed to 100 nM antigen for 5 minutes, then transferred to assay buffer for 5 min for off-rate measurement. Kinetics were analyzed using the 1:1 binding model.
Solution equilibrium titrations (SET) were performed in PBS+0.1% IgG-Free BSA (PBSF) with antigen held constant at 50 pM and incubated with 3- to 5-fold serial dilutions of antibody starting at 10 nM. Antibodies (20 nM in PBS) were coated onto standard bind MSD-ECL plates overnight at 4° C. or at room temperature for 30 min. Plates were then blocked for 30 min with shaking at 700 rpm, followed by three washes with wash buffer (PBSF+0.05% Tween 20). SET samples were applied and incubated on the plates for 150s with shaking at 700 rpm followed by one wash. Antigen captured on a plate was detected with 250 ng/mL sulfotag-labeled streptavidin in PBSF by incubation on the plate for 3 min. The plates were washed three times with wash buffer and then read on the MSD Sector Imager 2400 instrument using 1× Read Buffer T with surfactant. […]

Kd	Binder
5.75 nM	B2
1.14 nM	B9

molecular target: T1, human monomeric His tagged TREM2 protein; experiment: ForteBio or MSD-SET, monovalent; remark: another data set of the same source
Experimental: as §2
(§3) Solution equilibrium titrations (SET) were performed in PBS+0.1% IgG-Free BSA (PBSF) with antigen held constant at 50 pM and incubated with 3- to 5-fold serial dilutions of antibody starting at 10 nM. Antibodies (20 nM in PBS) were coated onto standard bind MSD-ECL plates overnight at 4° C. or at room temperature for 30 min. Plates were then blocked for 30 min with shaking at 700 rpm, followed by three washes with wash buffer (PBSF+0.05% Tween 20). SET samples were applied and incubated on the plates for 150s with shaking at 700 rpm followed by one wash. Antigen captured on a plate was detected with 250 ng/mL sulfotag-labeled streptavidin in PBSF by incubation on the plate for 3 min. The plates were washed three times with wash buffer and then read on the MSD Sector Imager 2400 instrument using 1×Read Buffer T with surfactant. The percent free antigen was plotted as a function of titrated antibody in Prism and fit to a quadratic equation to extract the KD. To improve throughput, liquid handling robots were used throughout MSD-SET experiments, including SET sample preparation.

Kd	Binder
6.32 nM	B3
5.01 nM	B4
6.67 nM	B5
3.19 nM	B6
1.01 nM	B7
0.654 nM	B8

molecular target: T4, mouse TREM2 Fc fusion protein; experiment: ForteBio or MSD-SET, avid
Experimental: as §2
(§4) Solution equilibrium titrations (SET) were performed in PBS+0.1% IgG-Free BSA (PBSF) with antigen held constant at 50 pM and incubated with 3- to 5-fold serial dilutions of antibody starting at 10 nM. Antibodies (20 nM in PBS) were coated onto standard bind MSD-ECL plates overnight at 4° C. or at room temperature for 30 min. Plates were then blocked for 30 min with shaking at 700 rpm, followed by three washes with wash buffer (PBSF+0.05% Tween 20). SET samples were applied and incubated on the plates for 150s with shaking at 700 rpm followed by one wash. Antigen captured on a plate was detected with 250 ng/mL sulfotag-labeled streptavidin in PBSF by incubation on the plate for 3 min. The plates were washed three times with wash buffer and then read on the MSD Sector Imager 2400 instrument using 1× Read Buffer T with surfactant. The percent free antigen was plotted as a function of titrated antibody in Prism and fit to a quadratic equation to extract the KD. To improve throughput, liquid handling robots were used throughout MSD-SET experiments, including SET sample preparation.

Kd	Binder
0.0896 nM	B2
0.227 nM	B9

molecular target: T5, human TREM2 Fc fusion protein; experiment: ForteBio or MSD-SET, avid
Experimental: as §2, §4

Kd	Binder
1.51 nM	B2
0.344 nM	B9

molecular target: T3, human TREM2 on primary human cells; experiment: cell-based or functional assay

Induction of CD86 & CD83 Human hDC plate (% CD83+CD86+ cells)	Induction of CD86 & CD83 hDC solution (% CD83+CD86+ cells)	Binder
79.3%	5.6%	B3
74%	1.7%	B4
87.2%	3%	B5
78.7%	1.9%	B6
74.5%	1.2%	B7
65.5%	4.3%	B8

molecular target: T4, mouse TREM2 Fc fusion protein; experiment: ForteBio or MSD-SET, avid; remark: another data set of the same source

binding result	Kd	Binder
no binding		B1
	0.0896 nM	B2

molecular target: T5, human TREM2 Fc fusion protein; experiment: ForteBio or MSD-SET, avid; remark: another data set of the same source

Kd	Binder
0.723 nM	B1
1.51 nM	B2

molecular target: T4, mouse TREM2 Fc fusion protein; experiment: ForteBio or MSD-SET, avid; remark: another data set of the same source
Experimental: as §2, §3

Kd	Binder
1.56 nM	B4
4.86 nM	B5
0.62 nM	B6
0.34 nM	B7

molecular target: T5, human TREM2 Fc fusion protein; experiment: ForteBio or MSD-SET, avid; remark: another data set of the same source
Experimental: as §2, §3

Kd	Binder
0.348 nM	B3
0.546 nM	B4
0.705 nM	B5
0.551 nM	B6
0.306 nM	B7
0.229 nM	B8

molecular target: T2, mouse TREM2 on cells; experiment: FACS, WT mouse dendritic cells
Experimental: as §1

MFI	Binder
538 MFI	B3
642 MFI	B4
393 MFI	B5
529 MFI	B6
451 MFI	B7
652 MFI	B8

molecular target: T2, mouse TREM2 on cells; experiment: FACS, BWZ T2 cells

MFI	Binder
15700 MFI	B3
16100 MFI	B4
12600 MFI	B5
11600 MFI	B6
12500 MFI	B7
16300 MFI	B8
